Results: US20050074863A1, “T-cell epitodes in carboxypeptidase g2” (priority 2001, published 2005)

Tested on: human T-cells
Experiment: Human PBMC in vitro proliferation assay with wild-type or modified CPG2 protein
Assay type: cell-based
Description: A modified protein was prepared according to the method of examples 3-5. The modified protein contained multiple substitutions from the wild-type sequence. Positive control protein was wild-type CPG2.
For T cell proliferation assays 4×10^6 PBMC (per well) from healthy donors were incubated with unmodified and modified […] in 2 ml bulk cultures (in 24 well plates). Each donor culture was treated with modified and unmodified CPG2 at 5 and 50 μg/ml. In addition an untreated control bulk culture was maintained enabling stimulation indexes to be determined. At days 5, 6, 7 and 8 cells for each bulk culture were gently agitated and 50 μl samples removed in triplicate for determination of the proliferation index. The 50 μl sample aliquots were each transferred to 3 wells of a U-bottom 96 well plate. Fresh AIM V media (130 μl) was added to each of the 96 wells. Cells were pulsed (for 18-21 hours) with 1 μCi [^3H]Thymidine per well diluted in a total volume of 20 ul AIM V media. The total volume for each culture was 200 μl. CPM values were collected using a beta-plate reader and the stimulation index for each time point determined as per Example 2.
The SI was plotted for each time point and treatment.

B1: carboxypeptidase G2 (protein, UniProt P06621 23-415, looked up)
Carboxypeptidase G2: ALAQKRDNVLFQAATDEQPAVIKTLEKLVNIETGTGDAEGIAAAGNFLEAELKNLGFTVTRSKSAGLVVGDNIVGKIKGRGGKNLLLMSHMDTVYLKGILAKAPFRVEGDKAYGPGIADDKGGNAVILHTLKLLKEYGVRDYGTITVLFNTDEEKGSFGSRDLIQEEAKLADYVLSFEPTSAGDEKLSLGTSGIAYVQVNITGKASHAGAAPELGVNALVEASDLVLRTMNIDDKAKNLRFNWTIAKAGNVSNIIPASATLNADVRYARNEDFDAAMKTLEERAQQKKLPEADVKVIVTRGRPAFNAGEGGKKLVDKAVAYYKEAGGTLGVEERTGGGTDAAYAALSGKPVIESLGLPGFGYHSDKAEYVDISAIPRRLYMAARLIMDLGAGK
modifications: 6xHis tag
notes: bacterial enzyme from Pseudomonas sp. strain RS-16, 390 residues, recombinant 6xHis tagged; positive control protein
proliferative response (stimulation index) to whole protein (responsive donors #1 and #16, 5 and 50 μg/ml, days 5-8, 3H-thymidine): significant proliferative response
time of peak proliferative response (responsive donors, 5 and 50 μg/ml): 7 days
